Data on 41 sequences can be found in the nanobody polyreactivity screen of Harvey et al. (2022).

A short description of the data set: yeast display, Sf9 membrane polyspecificity reagent, FACS + sequencing; frameworks hold sequencing errors. In short, it runs like this:
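Using colony PCR, genes from sorted yeast display clones were amplified, then sequenced on MiSeq at 2 × 250 and filtered by CDR length. The clones had been stained with 10% biotinylated, detergent-solubilized Sf9 membrane reagent for 1 hour at 4 °C and sorted by FACS into low and high (top ~1%) gates on anti-HA and streptavidin fluorescence. Polyreactivity labels come from the gate of origin.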
Take “QVQLVESGGGLVQAGGSLRLSCAASGSIFSQYVMGWYRQAPGKERELVAAISSGGITYYADSVKGRFTISRDNAKNTVYLQMNSLKPEDTAVYYCNKTSWYQYGYWGQGTQVTVSS”: the “polyreactivity (PSR sort gate)” value was “low polyreactivity”. The entry for “QVQLVESGGGLVQAGGSLRLSCAASGSIFSRYAMGWYRQAPGKERELVAAITSSGGRTYYADSVKGRFTISRDNAKNTVYLQMNSLKPEDTAVYYCAADVRTPSEGYDYWGQGTQGTVSS” is “high polyreactivity”; for “QVQLVESGGGLVQAGGSLRLSCAASGSIFSRYAMGWYRQAPGKERELVAGISQRGGSTNYADSVKGRFTISRDNAKNTVYLQMNSLKPEDTAVYYCAARRITVWGYNPAYGYRFDYWGQGTQVTVSS” it is “high polyreactivity”; for “QVQLVESGGGLVQAGGSLRLSCAASGSIFSSNAMGWSRQAPGKERELVASIRRGGSTYYADSVKGRFTISRDNAKNTVYLQMNSLKPEDTAVYDCARRYVPWYATYDHWGQGTQVTVSS” it is “high polyreactivity”.

Consider “QVQLVESGGGLVQAGGSLRLSCAASGSIFSSNVMGWYRQAPGKERELVAAITRRGSTTYYADSVKGRFTISRDNAKNTVYLQMNSLKPEDTAVYYCATKAKYGRQYLMDYWGQGTQVTVSS”, for which the “polyreactivity (PSR sort gate)” value is on record as “high polyreactivity”. Consider “QVQLVESGGGLVQAGGSLRLSCAASGSIFSSYAMGGYRQAPGKEWELVAAISRRGGSTYYADSVKGRFTISRDNAKNTVYLQMNSLKPEDTAVYYCNADSAARKGWPIYGYWGQGTQVTVSS”, for which the “polyreactivity (PSR sort gate)” value is given as “high polyreactivity”. The entry for “QVQLVESGGGLVQAGGSLRLSCAASGSIFSSYAMGWSRQAPGKEREFVAAISTGGRTYYADSVKGRFTISRDNAKNTVYLQMNSLKPEDTAVYYCAADGPLPHKVGTHTLDYWGQGTQVTVSS” is “low polyreactivity”. As to “QVQLVESGGGLVQAGGSLRLSCAASGSIFSSYAMGWYRPAPWKESELVAAITYNGGSTFYADSVKGRFTISRDNAKNTVYLPMYCLKPVDTAVYYCAAEYVGYYVYTWLYDYWGQGTQVTVSS”, the “polyreactivity (PSR sort gate)” value was “high polyreactivity”. With “QVQLVESGGGLVQAGGSLRLSCAASGSIFSSYAMGWYRQAPGKERELVAAISGGGNTYYADSVKGRFTISRDNAKNTVYLQMNSLKPEDTAVYYCATDTYDPFHIEDDYWGQGTQVTVSS” the entry was “low polyreactivity”; with “QVQLVESGGGLVQAGGSLRLSCAASGSIFSSYAMGWYRQAPGKERELVAAISSSGDSTYADSVKGRFTISRDNAKNTVYLQMISLKPEDTAGYYCAVGGAGSDDYWGQGTQVTVSS”, “low polyreactivity”.

For the sequence “QVQLVESGGGLVQAGGSLRLSCAASGSIFSSYAMGWYRQAPGKERELVAAITSGGSTYYADSVKGRFTISRDNAKNNVYLQMNSLKPEDTAVYYCAARQVRTSKLHMGYWGQGTQVTVSS”, the “polyreactivity (PSR sort gate)” value is listed as “low polyreactivity”.

As to “QVQLVESGGGLVQAGGSLRLSCAASGSIFSSYAMGWYRQAPGKERELVASISRRGGSTYYADSVKGRFTISRDKAKNTVYLQMNSLKPEDTAVYYCTASGGPYRYYYWGQGTQVTVSS”, the “polyreactivity (PSR sort gate)” value is “low polyreactivity”. The entry for “QVQLVESGGGLVQAGGSLRLSCAASGSIFSSYAMVWYRQAPGKERELVAAIDGSGGSTYADSVKGRFTISRDHAKNTVYLQMNSLKPEDTAVYYCAADSYSGRYYWWEYDYWGQGTQVTVSS” is “low polyreactivity”. The entry for “QVQLVESGGGLVQAGGSLRLSCAASGSIFSSYVMGWYRQAPGKERELVAAMSRSGGSTYYADSVKGRFTISRDNAKNTVYLQMNSLKPEDTAVYYCAADWTRGSPGMDYWGQGTQVTVSS” is “high polyreactivity”. With “QVQLVESGGGLVQAGGSLRLSCAASGSIFSTNALGWYRQAPGKERELVAGITRSGGRTYYADSVKGRFTISRDTAKNTVYLQMNSLKPEDTAVYYCTAVRPHRYYSWGQGSQVTVSS” the entry was “high polyreactivity”; with “QVQLVESGGGLVQAGGSLRLSCAASGSIFSTNAMGWYRQAPGKERELVAGISSDDSTYADSVKGRFTISRDNAKNTVYLQMNSLKQADTAVYYCAAEDNWYNVGYYYWGQGTQVTVSS”, “low polyreactivity”; with “QVQLVESGGGLVQAGGSLRLSCAASGSIFSTYAMGWYRQAPGKERELVAAISQGGSSTYYADSVKGRFTISRDIAKNTVYLQMKSLKAEDTAVYYCAKFPYLKFGYDYWGQCTQVTVSS”, “high polyreactivity”. Take “QVQLVESGGGLVQAGGSLRLSCAASGSIFSTYAMGWYRQAPGKERELVAAISVSGSSTYYADSVKGRFTISRDNAKNTVYLQMNSLKPEDTAVYYCAADVPYGASIISYDYWGQGTQVTVSS”: the “polyreactivity (PSR sort gate)” value was “low polyreactivity”. With “QVQLVESGGGLVQAGGSLRLSCAASGSIFSTYAMGWYRQAPGKERELVATIRRGGSTYYADSVKGRFTISRDNAKNTVYLQMNSLKPEDTAVYYCAATVSSYPYYRYYSWGQGTQVNVSS” the entry was “high polyreactivity”; with “QVQLVESGGGLVQAGGSLRLSCAASGSIFSTYVMGWYRQAPGKERELVAAISRRGGSTYYADSVKGRFTISRDNAKNTVYLQMNSLKPEDTAVYYCAARGQFRYSFGDYSWGQGTQVTVSS”, “high polyreactivity”.

Turning to “QVQLVESGGGLVQAGGSLRLSCAASGSIFSVNDMGWYRQAPGKERELVAAISSGGSTNYADSVKGRFTISRDNAKNTVSLQMNSLKPEDTAVYYCNTVVRGWSSSAYDYWGQGTQVTVSS”, the “polyreactivity (PSR sort gate)” value is listed as “low polyreactivity”.

With “QVQLVESGGGLVQAGGSLRLSCAASGSIFSVNSMGWYRPAPGKERELVATIRTGDSTNYADSVKGRFTISRDNAKNTVYLQMNSLKPEDTAVYYCAAEWSSLNFDYWGHGTQVTVSS”, the “polyreactivity (PSR sort gate)” value is listed as “low polyreactivity”.

As for “QVQLVESGGGLVQAGGSLRLSCAASGSIFSVYAMGWYRQAPGKERELVASITRSGGRTYYADSVKGRFTISRDNPKNTVYLQMNSLKPEDTAVYYCAADRLGSISGYDYWGQGTQVTVSS”, the “polyreactivity (PSR sort gate)” value is reported as “high polyreactivity”. Consider “QVQLVESGGGLVQAGGSLRLSCAASGSIFSVYAMGWYRQAPGTERELVAGITRNGGTTYYADSVKGRFTISRDNAKHTVYLQMNSLKPEDTAVYYCAADNGFPEYGVNRVWSRYDYWGQGTQVTVSS”, for which the “polyreactivity (PSR sort gate)” value is given as “low polyreactivity”. With “QVQLVESGGGLVQAGGSLRLSCAASGSIFSVYVMGWYRQAPGKERELVAAISWSDSDTYYADSVKGRFTISRDNAKNTVYLQMNSLKPEDTAVYYCAAETFDYADYIANGSGEYDYWGQGTQGTVSS” the entry was “high polyreactivity”; with “QVQLVESGGGLVQAGGSLRLSCAASGSIFSWNAMGWYRQAPGKERELVAAITSGGSTYYADSVKGRFTISRDNAKNTVYLQMNSLKPEDTAVYYCGWTYHYHRESWGQGTQVTVSS”, “low polyreactivity”; with “QVQLVESGGGLVQAGGSLRLSCAASGSIFSWNARGCYRQAPGKERELVAGITWSGGGTSYADSVKGRFTISRDNAKNTVYLQMNSLKPEDTAVYYCAKEWIFDFNYWGQGTQVTVSS”, “low polyreactivity”. Turning to “QVQLVESGGGLVQAGGSLRLSCAASGSIFSWYAMGWYRQAPGKERELVAAITSDGGTNYADSVKGRFTISRDNAKNTVYLQMNRLKPEDTAVYYCAADYWYSWRRSHYAHRYGYWGQGTQVTVSS”, the “polyreactivity (PSR sort gate)” value is recorded as “low polyreactivity”. The entry for “QVQLVESGGGLVQAGGSLRLSCAASGSIFSYNAMGWYRQAHGKERELVAAIRASGGSTYYADSVKGRFTISRDNAKNTVYLQMNSLKPEDTAVYYCAARGYGWGQGTQVTVSS” is “high polyreactivity”; for “QVQLVESGGGLVQAGGSLRLSCAASGSIFSYNAMGWYRQAPGKERELVAAIRASGGDTYYADSVKGRFTISRDNAKNTVYLQMNSLKPEDTAVYYCAARTYAHHYASHGYWGQGTQVTVSS” it is “low polyreactivity”. The entry for “QVQLVESGGGLVQAGGSLRLSCAASGSIFSYNAMGWYRQAPGKERELVAAISRNGGRTYYADSVKGRFTISRDNAKNTVYLQMNSLKPEDTAVYYCNNAGYRAGTGSYDYWGQGTQVTVSS” is “high polyreactivity”; for “QVQLVESGGGLVQAGGSLRLSCAASGSIFSYNAMGWYRQAPGKERELVAAISSGDYTYYADSVKGRFTISRDNAKNTVYLQMNSLKPEDTAVYYCAAPYVYSRGLSGDYYWGQGTQVTVSS” it is “high polyreactivity”; for “QVQLVESGGGLVQAGGSLRLSCAASGSIFSYYAMGCYRQAPGKERQLVASISWIGTSTYYADSVKGRFTISRDNAKNTFYLQINSLKPEDTAVYYCNADWTYYGFGTRLDYWGQGTQVTVSS” it is “low polyreactivity”.

Regarding “QVQLVESGGGLVQAGGSLRLSCAASGSIFSYYAMGGYRQAPGKARELVASISWNGTSTYYADSVKGRFTISRDNAKNTVYLQMNSLKPEDTAVYYCNVRFNYRGTYDYWGQGTQVTVSS”, the “polyreactivity (PSR sort gate)” value was “low polyreactivity”.

On to “QVQLVESGGGLVQAGGSLRLSCAASGSIFSYYAMGWDRQAPGKERELVASISWNGTSTYYADSVKGRFTISRDNAKNTVYLQMNSLKPEDTAVYYCNGRFIYRGTYDYWGQGTQVTVSS”, for which the “polyreactivity (PSR sort gate)” value is on record as “low polyreactivity”. The entry for “QVQLVESGGGLVQAGGSLRLSCAASGSIFSYYAMGWYRQAPGKEREFVAAITKSGGSTYYADSVKGRFTISRDNAKNTVYLQMNSLKPEDTAVYYCAVRYKLYYYRYDYWGQGTQVTVSS” is “low polyreactivity”; for “QVQLVESGGGLVQAGGSLRLSCAASGSIFSYYAMGWYRQAPGKERELVAAINWSGGRTYYADSVKGRFTISRDNAKNTVYLQMNSLKPEDTAVYYCNAVSNFWFIVFYGNQPKTDDYWGQGTQVTVSS” it is “high polyreactivity”; for “QVQLVESGGGLVQAGGSLRLSCAASGSIFSYYAMGWYRQAPGKERELVAAIRWRTGNTYYADSVKGRFTISRDNAMNTVYLQMNSLKPEDTAVYYCNAVYRYNYGYREYEYWGQGTQVTVSS” it is “high polyreactivity”.

For “QVQLVESGGGLVQAGGSLRLSCAASGSIFSYYAMGWYRQAPGKERELVAAITVRGGSTYYADSVKGRFTISRDNAKNTVYLQMNSLKPEDTGVYYCAADWLDESFSYGPYYYWGQGTQVTVSS”, the “polyreactivity (PSR sort gate)” value is given as “low polyreactivity”. The entry for “QVQLVESGGGLVQAGGSLRLSCAASGSIFSYYTMGWYRQAPGQERELVAAISRRGGRTYYADSVKGRFTISRDNAKNTVYLQMNSLKPEDTAVYYCAAEWAGWNNEMDYWGQVTQVTVSS” is “high polyreactivity”.

Regarding “QVQLVESGGGLVQAGGSLRLSCAASGSIFTADAMGWYRQAPGKERELVAAISRSGGRTYYADSVKGRFTISRDNAKNTDYLQMNSLKPEDTAVYYCAAAFASQYRVVKYYYWGQGTQVTVSS”, the “polyreactivity (PSR sort gate)” value was “high polyreactivity”.
